According to US20150322149A1 (Hoffmann-La Roche, published 2015):

How the values were obtained:
[1] = target: T1, Abeta(1-40), fibrillar, immobilized (UniProt P05067 672-711); assay: ELISA on coated fibrillar Abeta(1-40)
T1 construct: domain: Abeta(1-40); Numbers 1-40 count on the Abeta peptide, not on the APP precursor; also called Abeta fibrils; fibrillar Abeta
Method: Functionality of mAb31 was confirmed by ELISA. Briefly, Abeta(1-40) was coated at 7 μg/mL in PBS onto Maxisorp plates for 3 days at 37° C. to produce fibrillar Abeta, then dried for 3 h at RT. The plate was blocked with 1% Crotein C and 0.1% RSA in PBS (blocking buffer) for 1 h at RT, then washed once with wash buffer. mAb31 constructs were added at concentrations up to 100 nM in blocking buffer and incubated at 4° C. overnight. After 4 wash steps, constructs were detected as indicated above.

[2] = target: T2, recombinant mouse transferrin receptor (mTfR), extracellular domain (mouse, UniProt Q62351 89-763); assay: indirect ELISA on coated recombinant mTfR extracellular domain
T2 construct: extracellular domain; Bought protein; also called murine Transferrin receptor 1
Method: Binding of mAb31-8D3 constructs to mouse transferrin receptor (mTfR) was assessed by indirect ELISA. To this end, recombinant mTfR (extracellular domain; Sino Biological) was coated to Maxisorb microtiter plate (Nunc) at 1 μg/mL in PBS at 4° C. overnight. After blocking in 1% Cro-tein-C/PBS (blocking buffer; Roche) for 1 h at RT and 4 washes with 0.1% Tween-20/PBS (wash buffer), mAb31-8D3 constructs were added to the wells at concentrations between 0.01 and 150 nM in blocking buffer and incubated for 1 h at RT. After 4 wash steps, constructs were detected by addition of anti-human-IgG-HRP (Jackson Immunoresearch) at 1:10,000 dilution in blocking buffer […], followed by 6 washes and incubation in TMB (Sigma). Absorbance was read out at 450 nm after stopping color development with 1 N HCl.

T1 sequence (P05067 672-711 limits assumed): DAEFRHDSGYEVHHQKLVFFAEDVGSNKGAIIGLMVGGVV
T2 sequence (Q62351 89-763): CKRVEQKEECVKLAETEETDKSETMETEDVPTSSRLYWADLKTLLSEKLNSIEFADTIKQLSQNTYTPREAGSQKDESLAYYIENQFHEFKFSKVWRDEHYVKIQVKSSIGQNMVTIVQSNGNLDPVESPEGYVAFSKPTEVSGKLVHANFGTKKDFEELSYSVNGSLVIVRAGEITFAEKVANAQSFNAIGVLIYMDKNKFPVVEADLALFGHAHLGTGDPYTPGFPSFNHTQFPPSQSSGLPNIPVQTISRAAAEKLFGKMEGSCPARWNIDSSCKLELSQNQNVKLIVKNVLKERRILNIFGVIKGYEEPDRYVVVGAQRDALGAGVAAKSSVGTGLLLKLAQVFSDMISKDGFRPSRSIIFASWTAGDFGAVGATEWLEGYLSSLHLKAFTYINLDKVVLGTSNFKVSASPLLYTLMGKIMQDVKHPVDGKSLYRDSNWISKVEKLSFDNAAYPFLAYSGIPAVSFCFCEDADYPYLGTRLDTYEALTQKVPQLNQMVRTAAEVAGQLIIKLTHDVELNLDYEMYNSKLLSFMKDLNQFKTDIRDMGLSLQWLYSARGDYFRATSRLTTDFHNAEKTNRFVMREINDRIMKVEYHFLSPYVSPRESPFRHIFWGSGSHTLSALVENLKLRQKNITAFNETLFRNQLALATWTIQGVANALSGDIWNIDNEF

binding result [1]: binds | binding result [2]: no binding (tested: 0.01 to 150 nM)
B1: mAb31 (human monoclonal antibody recognizing Abeta; INN Gantenerumab) (antibody, V domains shown)
VH: QVELVESGGGLVQPGGSLRLSCAASGFTFSSYAMSWVRQAPGKGLEWVSAINASGTRTYYADSVKGRFTISRDNSKNTLYLQMNSLRAEDTAVYYCARGKGNTHKPYGYVRYFDVWGQGTLVTVSS
VL: DIVLTQSPATLSLSPGERATLSCRASQSVSSSYLAWYQQKPGQAPRLLIYGASSRATGVPARFSGSGSGTDFTLTISSLEPEDFATYYCLQIYNMPITFGQGTKVEIKR
notes: also called anti-Aβ monoclonal antibody mAb31
